A word on the Kd: it is the concentration at which binding is half-saturated. Low values mean tighter binding, high ones weaker binding.

Changes are numbered by the printed parent chain.

This is an account of results in patent US20210363269A1 (ALX ONCOLOGY, published 2021).

Sequences and labels used below:
B1: antibody 135 (antibody, V domains shown)
VH: DVQLVESGGGVVRPGESLRLSCAASGFSFSIYAMSWVRQAPGEGLEWVSTIGADDTYYADSVKGRFTISRDNSKNTLYLQMNSLRAEDTAVYYCAKDSTVGWSGDFFDYWGLGTLVTVSS
VL: EIVLTQSPATLSVSPGERVTFSCRASQNVRSDIAWYQQKPGQAPRLLIYAASSRDTGIPDRFSGSGSGTDFTLTISSLQSEDFGVYYCQQYYDWPPFTFGGGTKVEIK
notes: also called AB135; S135
B2: antibody 122 (antibody, V domains shown)
VH: VQLVESGGGVVRPGESLRLSCAASGFRFSNFAMTWVRQAPGEGLEWVSTIGSGDTYYADSVKGRFTISRDNSKNTLYLQMNSLRAEDTAVYYCAKDSTVSWSGDFFDYWGLGTLVTVSS
VL: EIVLTQSPATLSVSPGERATFSCRASQNVKNDLAWYQQRPGQAPRLLIYAARIRETGIPERFSGSGSGTEFTLTITSLQSEDFAVYYCQQYYDWPPFTFGGGTKVEIK
notes: also called S122
B3: antibody 173 (antibody, V domains shown)
VH: DVQLVESGGGVVRPGESLRLSCAASGFAFSDHDMSWVRQGPGEGLEWVAGISLRGGVTWYADSVKGRFTISRDNSKNTLYLRLFSLRTEDTAIYYCARESWNTFFDYWGLGTLVTVSS
VL: EIVLTQSPGTLSLSPGETATLSCRASQNVRSNLAWYQQKPGQAPRLLIYDASSRATGIPDRFSGSGSGTDFTLTISSLQSEDFAVYYCQQYGNGPPLTFGGGTKVEIK
notes: also called S173
B4: antibody 115 (antibody, V domains shown)
VH: DVQLVESGGGVVRPGESLRLSCAASGFSFSSYAMNWVRQAPGEGLEWVSRINSGGGGTDYAESVKGRFTISRDNSENTLYLQMNSLRAEDTAVYYCAKQYDWNSFFDYWGLGALVTVSS
VL: ETVLTQSPATLSVSPGERATLSCRASQTVGSKLAWHQQKPGQAPRLLIYDATNRATGISDRFSGSGSGTDFTLTISSLQTEDSAVYYCQQYYYWPPYRFGGGTKVEIK
notes: also called S115
B5: antibody 117 (antibody, V domains shown)
VH: VQLVESGGGVVRPGESLRLSCAASGFSFSSYAMNWVRQAPGEGLEWVSRINSGGGGTDYAESVKGRFTISRDNSENTLYLQMNSLRAEDTAVYYCAKQYDWNGFFDYWGLGALVTVSS
VL: B4 VL with S59P
notes: also called S117
B6: antibody 118 (antibody, V domains shown)
VH: B5 VH
VL: B4 VL with T52S, N53R, S59P
notes: also called S118
B7: antibody 116 (antibody, V domains shown)
VH: B5 VH with G103S
VL: B4 VL with G66R
notes: also called S116
B8: antibody 119 variant, light chain Mut / heavy chain wt (antibody, V domains shown)
VH: B1 VH with V5L, R13Q, E16G, I31N, Y32F, S35T, A53S, D54G, G101S
VL: B2 VL with F21L, R39K, E60A, T76S
B9: antibody 135 variant, light chain Mut / heavy chain wt (antibody, V domains shown)
VH: B1 VH
VL: B1 VL with F21L, D60A
B10: antibody 119 variant, light chain wt / heavy chain Mut (antibody, human IgG1, V domains shown)
VH: EVQLLESGGGVVQPGGSLRLSCAASGFSFSNFAVTWVRQAPGKGLEWVSTIGSGDTYYADSVKGRFTISRDNSKNTLYLQMNSLRAEDTAVYYCAKDSTVSWSGDFFDYWGQGTLVTVSS
VL: B2 VL
B11: antibody 135 variant, light chain wt / heavy chain Mut (antibody, V domains shown)
VH: B1 VH with D1E, R13Q, E16G, M34V, E43K, L112Q
VL: B1 VL

The target in the first assay is T1, human SIRP-α v1 (human, UniProt P78324 31-149).
T1 construct: also called Human v1; Human V1
T1 sequence (P78324 31-149 limits assumed): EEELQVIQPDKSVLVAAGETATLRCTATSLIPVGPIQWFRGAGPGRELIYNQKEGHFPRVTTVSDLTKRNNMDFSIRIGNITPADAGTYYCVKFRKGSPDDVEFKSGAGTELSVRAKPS
Briefly: SPR. In outline: (§1)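 SIRP analytes at nominal, A280-based concentrations were injected in one-shot kinetic mode over purified antibodies that were amine-coupled to a GLC chip or captured by biotinylated Protein A on an NLC chip of a ProteOn XPR36. All runs were at 25° C in PBS pH 7.4 with 0.01% Tween-20. Apparent ka and kd came from a global simple Langmuir fit of double-referenced data, with KD as their ratio kd/ka.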
On the technique in general: SPR reads the build-up and loss of mass on a sensor chip optically.
With B1, the Kd stood at 0.151 nM. That is a sub-nanomolar value.

In turn, B2 yielded a Kd of 0.214 nM.

In turn, B3 showed a Kd of 0.937 nM.

B4 came in with a Kd of 0.0177 nM.

In turn, B5 came in with a Kd of 0.0312 nM. Compared with the last molecule, the Kd is about 1.8-fold higher.

B6 returned a Kd of 0.0403 nM.

Take B7: the Kd was determined as 0.11 nM. This Kd is about 2.7-fold higher than that of the molecule before.

A further assay deals with T2, human SIRP-α v2 (human).
T2 construct: also called Human v2; Human V2
T2 sequence (chain, as listed by the source limits assumed): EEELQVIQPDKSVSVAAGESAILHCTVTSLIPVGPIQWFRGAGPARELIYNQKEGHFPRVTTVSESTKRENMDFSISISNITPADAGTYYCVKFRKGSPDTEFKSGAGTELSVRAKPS
As to the kind of experiment: SPR. In outline: as §1
On to B1, for which the Kd turned out to be 0.029 nM.

The molecule B2 yielded a Kd of 0.0778 nM.

As for B3, the affinity, expressed as Kd, was 9.28 nM.

Take B4: the Kd amounted to 0.015 nM.

As for B7, the Kd was determined as 0.299 nM.

Another assay concerns the target T3, cynomolgus SIRP-α (cynomolgus monkey, UniProt Q5TFQ8 30-148 (human entry), limits assumed).
T3 construct: also called cyno1
T3 chain: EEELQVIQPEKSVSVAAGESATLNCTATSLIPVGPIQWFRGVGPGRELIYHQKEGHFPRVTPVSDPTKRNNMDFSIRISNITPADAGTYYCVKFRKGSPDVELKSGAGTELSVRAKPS
Briefly: SPR Koff +/-. In outline:
as §1
For B2, the binding result was “binds”.

For B3, the binding result is given as “no binding”.

On to B4, for which the binding result was “binds”.

Regarding B5, the binding result is on record as “binds”.

With B6, the binding result is “binds”.

On to B7, for which the binding result is recorded as “binds”.

The next assay concerns the target T4, mouse 129 SIRP-α (mouse (129 strain), UniProt P97797 32-150).
T4 construct: also called m129
T4 chain: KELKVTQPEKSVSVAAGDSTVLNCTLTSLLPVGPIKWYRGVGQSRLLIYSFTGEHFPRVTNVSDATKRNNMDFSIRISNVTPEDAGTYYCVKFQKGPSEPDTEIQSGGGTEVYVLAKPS
Briefly: SPR Koff +/-. In outline:
as §1
On to B1, for which the binding result was “no binding”.

Take B2: the binding result is recorded as “no binding”.

Consider B3, for which the binding result was “no binding”.

On to B4, for which the binding result is recorded as “no binding”.

Turning to B5, the binding result is recorded as “no binding”.

Regarding B6, the binding result is given as “no binding”.

As to B7, the binding result was “no binding”.

The target of the next assay is T5, human SIRPβ isoform 1 (human, UniProt O00241 30-148).
T5 construct: also called Beta; Human SIRPb
T5 sequence (O00241 30-148 limits assumed): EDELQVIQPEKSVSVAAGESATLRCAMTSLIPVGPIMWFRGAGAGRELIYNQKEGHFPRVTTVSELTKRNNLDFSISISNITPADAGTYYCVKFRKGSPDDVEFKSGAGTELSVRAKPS
Briefly: SPR Koff +/-. In outline: as §1
Take B1: the binding result is listed as “binds”.

B2: the binding result is “binds”.

With B3, the binding result is on record as “no binding”.

Consider B4, for which the binding result is “binds”.

For B5, the binding result is on record as “binds”.

For the molecule B6, the binding result is on record as “binds”.

Regarding B7, the binding result was “binds”.

The target in the next assay is T6, human SIRPγ isoform 1 (human, UniProt Q9P1W8 29-147).
T6 construct: also called Gamma; Human SIRPg
T6 sequence (Q9P1W8 29-147 limits assumed): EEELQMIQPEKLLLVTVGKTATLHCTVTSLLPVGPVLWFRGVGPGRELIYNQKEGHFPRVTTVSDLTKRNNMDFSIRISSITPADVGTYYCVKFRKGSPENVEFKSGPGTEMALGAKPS
As to the kind of experiment: SPR Koff +/-. In outline: as §1
As to B2, the binding result is “binds”.

Consider B3, for which the binding result was “no binding”.

On to B4, for which the binding result is on record as “binds”.

Regarding B5, the binding result is given as “binds”.

B6: the binding result is “binds”.

As to B7, the binding result is on record as “binds”.

The target of the next assay is T1, human SIRP-α v1. As to the kind of experiment: SPR, antibody on GLC chip. In outline:
(§2)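 Protein A-purified antibodies were diluted to 80 nM in 10 mM sodium acetate pH 4.5 and amine-coupled (~1000 RU) to a GLC chip of a ProteOn XPR36 biosensor. SIRP analytes were injected one-shot at 100, 33, 11, 3.7, 1.2 and 0 nM in PBS pH 7.4 with 0.01% Tween-20 at 25° C. Association ran 90 s at 100 μL/min and dissociation 1200 s. KD came from double-referenced data fitted globally to a Langmuir model, as kd/ka.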
In turn, B8 displayed a Kd of 0.214 nM.

B1 yielded a Kd of 0.151 nM. The Kd values of the last two molecules are within 1.5-fold of each other.

Molecule B9 yielded a Kd of 0.149 nM. The Kd values of the last two molecules are within 1.5-fold of each other.

For B10, binding was characterised by a dissociation constant (Kd) of 0.254 nM.

In turn, B11 returned a Kd of 0.184 nM.

For a further assay, the target named is T2, human SIRP-α v2. Briefly: SPR, antibody on GLC chip. In outline: as §2
With B8, the dissociation constant Kd came to 0.0864 nM.

Molecule B1 came in with a Kd of 0.029 nM. This Kd lies about 3-fold lower than the previous one.

Take B9: the Kd amounted to 0.0266 nM.

Molecule B10 gave a Kd of 0.0694 nM.

Consider B11, for which the Kd came out at 0.0197 nM.

The target in a further assay is T3, cynomolgus SIRP-α. Briefly: SPR, antibody on GLC chip. The essentials: as §2
B8 gave a Kd of 0.138 nM.

For B1, the affinity, expressed as Kd, was 0.0969 nM.

B9 showed a Kd of 0.102 nM.

B10 came in with a Kd of 0.155 nM.

As for B11, the Kd was determined as 0.125 nM. The Kd values of the last two molecules are within 1.5-fold of each other.

Another assay addresses T7, NOD mouse SIRP-α (mouse (NOD strain)).
T7 chain: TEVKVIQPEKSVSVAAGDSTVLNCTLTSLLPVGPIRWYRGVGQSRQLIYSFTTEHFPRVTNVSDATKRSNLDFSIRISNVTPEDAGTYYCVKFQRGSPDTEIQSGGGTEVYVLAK
Briefly: SPR, antibody on GLC chip. The essentials:
as §2
As to B8, the binding result is “no binding”.

As for B1, the binding result is reported as “no binding”.

Consider B9, for which the binding result is “no binding”.

With B10, the binding result was “no binding”.

Turning to B11, the binding result is on record as “no binding”.

In another assay the target is T8, BL6 mouse SIRP-α (mouse (C57BL/6 strain), UniProt P97797 32-148).
T8 construct: also called C57BL/6
T8 sequence: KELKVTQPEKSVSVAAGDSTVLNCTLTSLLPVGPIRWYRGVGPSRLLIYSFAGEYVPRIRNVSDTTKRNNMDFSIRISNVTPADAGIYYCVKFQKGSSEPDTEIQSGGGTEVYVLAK
Briefly: SPR, antibody on GLC chip. In outline:
as §2
Take B8: the binding result was “no binding”.

As for B1, the binding result is recorded as “no binding”.

In the case of B9, the binding result is listed as “no binding”.

For B10, the binding result is reported as “no binding”.

In the case of B11, the binding result was “no binding”.

In a further assay the target is T9, BALBc mouse SIRP-α (mouse (BALB/c strain)).
T9 chain: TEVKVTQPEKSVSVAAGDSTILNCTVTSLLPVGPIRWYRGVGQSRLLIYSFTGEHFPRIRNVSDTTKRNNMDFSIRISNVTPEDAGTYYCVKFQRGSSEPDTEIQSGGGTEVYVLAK
As to the kind of experiment: SPR, antibody on GLC chip. The essentials: as §2
Regarding B8, the binding result is listed as “no binding”.

With B1, the binding result is “no binding”.

B9: the binding result is on record as “no binding”.

In the case of B10, the binding result was “no binding”.

For B11, the binding result is reported as “no binding”.

In the next assay the target is T6, human SIRPγ isoform 1. Briefly: SPR, antibody on GLC chip. In outline: as §2
B8 gave a Kd of 0.233 nM.

With B1, the Kd was found to be 0.539 nM.

With B9, binding was put at a Kd of 0.522 nM.

B11 displayed a Kd of 0.779 nM.
